Laboratory results as given in paper PMC5458144 (2017).

Target: CRL4A-CRBN (Homo sapiens, UniProt Q96SW2)
Assay: TR-FRET

Sequence of CRL4A-CRBN (Q96SW2 whole entry, chain 1 of 4): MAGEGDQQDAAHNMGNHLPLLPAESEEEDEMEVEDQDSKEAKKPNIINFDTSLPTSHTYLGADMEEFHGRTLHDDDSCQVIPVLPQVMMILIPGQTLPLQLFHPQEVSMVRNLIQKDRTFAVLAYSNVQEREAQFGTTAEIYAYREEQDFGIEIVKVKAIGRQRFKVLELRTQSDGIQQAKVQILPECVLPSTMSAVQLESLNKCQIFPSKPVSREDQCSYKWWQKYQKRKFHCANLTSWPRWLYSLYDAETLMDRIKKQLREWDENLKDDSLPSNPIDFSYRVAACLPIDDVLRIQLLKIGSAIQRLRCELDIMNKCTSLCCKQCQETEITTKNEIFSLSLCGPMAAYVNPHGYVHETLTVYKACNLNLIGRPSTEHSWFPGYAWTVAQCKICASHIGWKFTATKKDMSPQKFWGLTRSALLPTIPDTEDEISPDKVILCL
Sequence of CRL4A-CRBN (Q16531 2-1140, chain 2 of 4, further chain): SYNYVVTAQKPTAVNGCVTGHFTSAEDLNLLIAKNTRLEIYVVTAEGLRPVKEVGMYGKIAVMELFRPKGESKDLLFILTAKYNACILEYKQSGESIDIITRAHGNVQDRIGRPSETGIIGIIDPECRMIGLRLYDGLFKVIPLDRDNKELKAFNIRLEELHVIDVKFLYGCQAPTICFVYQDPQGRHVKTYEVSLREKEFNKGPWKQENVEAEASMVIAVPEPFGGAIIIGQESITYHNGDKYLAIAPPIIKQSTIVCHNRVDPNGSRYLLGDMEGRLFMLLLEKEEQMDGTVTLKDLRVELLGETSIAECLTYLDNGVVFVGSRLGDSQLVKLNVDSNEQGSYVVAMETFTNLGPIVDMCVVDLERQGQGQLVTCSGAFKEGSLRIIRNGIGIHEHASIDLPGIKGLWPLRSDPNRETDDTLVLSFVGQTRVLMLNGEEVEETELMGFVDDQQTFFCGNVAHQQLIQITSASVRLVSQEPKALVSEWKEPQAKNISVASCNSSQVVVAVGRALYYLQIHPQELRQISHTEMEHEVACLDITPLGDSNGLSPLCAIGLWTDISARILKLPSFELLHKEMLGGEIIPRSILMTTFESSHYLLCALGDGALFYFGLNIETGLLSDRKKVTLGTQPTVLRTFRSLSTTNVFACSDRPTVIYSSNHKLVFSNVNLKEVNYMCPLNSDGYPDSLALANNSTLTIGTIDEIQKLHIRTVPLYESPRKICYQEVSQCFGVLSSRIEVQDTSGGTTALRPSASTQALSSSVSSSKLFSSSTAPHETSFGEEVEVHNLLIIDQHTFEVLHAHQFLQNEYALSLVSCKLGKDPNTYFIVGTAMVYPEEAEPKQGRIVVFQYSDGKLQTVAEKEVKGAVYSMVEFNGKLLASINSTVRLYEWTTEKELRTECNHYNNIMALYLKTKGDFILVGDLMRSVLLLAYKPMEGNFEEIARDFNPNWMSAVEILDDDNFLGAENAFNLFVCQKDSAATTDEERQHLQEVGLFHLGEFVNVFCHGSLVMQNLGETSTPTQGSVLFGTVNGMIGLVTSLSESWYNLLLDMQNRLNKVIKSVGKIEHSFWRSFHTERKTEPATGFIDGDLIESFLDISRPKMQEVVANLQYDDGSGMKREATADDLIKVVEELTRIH
Sequence of CRL4A-CRBN (Q13619 whole entry, chain 3 of 4, further chain): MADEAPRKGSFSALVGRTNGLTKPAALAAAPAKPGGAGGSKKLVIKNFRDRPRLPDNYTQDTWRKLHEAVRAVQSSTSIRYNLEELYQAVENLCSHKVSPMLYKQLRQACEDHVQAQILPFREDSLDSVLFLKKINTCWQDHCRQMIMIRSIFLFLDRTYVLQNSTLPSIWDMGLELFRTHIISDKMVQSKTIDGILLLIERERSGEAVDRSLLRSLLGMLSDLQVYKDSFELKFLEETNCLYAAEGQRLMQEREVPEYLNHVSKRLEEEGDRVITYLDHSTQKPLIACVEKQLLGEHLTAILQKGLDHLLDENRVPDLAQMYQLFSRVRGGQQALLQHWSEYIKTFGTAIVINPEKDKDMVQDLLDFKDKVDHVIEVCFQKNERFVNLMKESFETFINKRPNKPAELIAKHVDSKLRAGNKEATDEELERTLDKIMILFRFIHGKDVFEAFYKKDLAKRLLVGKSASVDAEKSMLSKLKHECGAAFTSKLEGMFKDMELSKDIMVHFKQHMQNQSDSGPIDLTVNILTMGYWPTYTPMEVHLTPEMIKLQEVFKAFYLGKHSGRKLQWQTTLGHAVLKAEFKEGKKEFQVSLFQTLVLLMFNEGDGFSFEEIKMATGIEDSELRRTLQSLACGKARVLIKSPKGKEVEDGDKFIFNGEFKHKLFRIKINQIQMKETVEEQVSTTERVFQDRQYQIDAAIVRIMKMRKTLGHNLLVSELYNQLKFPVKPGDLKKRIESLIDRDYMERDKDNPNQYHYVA
Sequence of CRL4A-CRBN (P62877 2-108, chain 4 of 4, further chain): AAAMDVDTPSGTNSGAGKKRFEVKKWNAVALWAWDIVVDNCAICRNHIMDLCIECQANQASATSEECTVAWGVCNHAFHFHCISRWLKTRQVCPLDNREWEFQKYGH

B1: ZFP91 (protein)
chain: PGETEEPRPPEQQDQEGGEAAKAAPEEPQQRPPEAVAAAPAGTTSSRVLRGGRDRGRAAAAAAAAAVSRRRKAEYPRRRRSSPSARPPDVPGQQPQAAKSPSPVQGKKSPRLLCIEKVTTDKDPKEEKEEEDDSALPQEVSIAASRPSRGWRSSRTSVSRHRDTENTRSSRSKTGSLQLICKSEPNTDQLDYDVGEEHQSPGGISSEEEEEEEEEMLISEEEIPFKDDPRDETYKPHLERETPKPRRKSGKVKEEKEKKEIKVEVEVEVKEEENEIREDEEPPRKRGRRRKDDKSPRLPKRRKKPPIQYVRCEMEGCGTVLAHPRYLQHHIKYQHLLKKKYVCPHPSCGRLFRLQKQLLRHAKHHTDQRDYICEYCARAFKSSHNLAVHRMIHTGEKPLQCEICGFTCRQKASLNWHMKKHDADSFYQFSCNICGKKFEKKDSVVAHKAKSHPEVLIAEALAANAGALITSTDILGTNPESLTQPSDGQGLPLLPEPLGNSTSGECLLLEAEGMSKSYCSGTERVSLMADGKIFVGSGSSGGTEGLVMNSDILGATTEVLIEDSDSAGP
modifications: lenalidomide
- Kd: 107 nM
